For test [1], the target named is bacteriophage displaying the DO11.10 scTCR/gene VIII fusion protein (vector pKC51) (murine; fd tet bacteriophage). As to the kind of experiment: phage panning on biotin antibody on neutrAvidin wells, phage diluted 1:50,000 in irrelevant phage.
The target in test [2] is single-chain MHC class II I-A^d complex with OVA 323-339 peptide, immobilized (chicken; murine) (UniProt P01012). Briefly: cell-based or functional assay.

The values that follow come from US20070116718A1.

Sequence of bacteriophage displaying the DO11.10 scTCR/gene VIII fusion protein (vector pKC51) (murine; fd tet bacteriophage) (main, as listed by the source): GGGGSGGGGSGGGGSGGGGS

Consider “anti-V-β8.2 monoclonal antibody MR5-2 (PharMingen)”, for which the fold enrichment after a single round of panning in test [1] came to 5000 fold.

Substance “bacteriophage displaying the DO11.10 scTCR/gene VIII fusion protein (vector pKC51)” registered a level of IL-2 inhibition, DO11.10 group against gD12 hybridoma group in test [2] of 8 to 10 fold.

In the case of “hamster anti-mouse αβ TCR antibody H57-597 (ATCC HB-218)”, in test [1], the fold enrichment after a single round of panning amounted to 5000 fold.
